Experimental data from publication PMC5507636 (Science Advances, 2017).

Molecular target: Streptococcus pyogenes Cas9 (Streptococcus pyogenes, UniProt Q99ZW2)
Assay: cryo-EM structure

Streptococcus pyogenes Cas9, sequence (Q99ZW2 whole entry): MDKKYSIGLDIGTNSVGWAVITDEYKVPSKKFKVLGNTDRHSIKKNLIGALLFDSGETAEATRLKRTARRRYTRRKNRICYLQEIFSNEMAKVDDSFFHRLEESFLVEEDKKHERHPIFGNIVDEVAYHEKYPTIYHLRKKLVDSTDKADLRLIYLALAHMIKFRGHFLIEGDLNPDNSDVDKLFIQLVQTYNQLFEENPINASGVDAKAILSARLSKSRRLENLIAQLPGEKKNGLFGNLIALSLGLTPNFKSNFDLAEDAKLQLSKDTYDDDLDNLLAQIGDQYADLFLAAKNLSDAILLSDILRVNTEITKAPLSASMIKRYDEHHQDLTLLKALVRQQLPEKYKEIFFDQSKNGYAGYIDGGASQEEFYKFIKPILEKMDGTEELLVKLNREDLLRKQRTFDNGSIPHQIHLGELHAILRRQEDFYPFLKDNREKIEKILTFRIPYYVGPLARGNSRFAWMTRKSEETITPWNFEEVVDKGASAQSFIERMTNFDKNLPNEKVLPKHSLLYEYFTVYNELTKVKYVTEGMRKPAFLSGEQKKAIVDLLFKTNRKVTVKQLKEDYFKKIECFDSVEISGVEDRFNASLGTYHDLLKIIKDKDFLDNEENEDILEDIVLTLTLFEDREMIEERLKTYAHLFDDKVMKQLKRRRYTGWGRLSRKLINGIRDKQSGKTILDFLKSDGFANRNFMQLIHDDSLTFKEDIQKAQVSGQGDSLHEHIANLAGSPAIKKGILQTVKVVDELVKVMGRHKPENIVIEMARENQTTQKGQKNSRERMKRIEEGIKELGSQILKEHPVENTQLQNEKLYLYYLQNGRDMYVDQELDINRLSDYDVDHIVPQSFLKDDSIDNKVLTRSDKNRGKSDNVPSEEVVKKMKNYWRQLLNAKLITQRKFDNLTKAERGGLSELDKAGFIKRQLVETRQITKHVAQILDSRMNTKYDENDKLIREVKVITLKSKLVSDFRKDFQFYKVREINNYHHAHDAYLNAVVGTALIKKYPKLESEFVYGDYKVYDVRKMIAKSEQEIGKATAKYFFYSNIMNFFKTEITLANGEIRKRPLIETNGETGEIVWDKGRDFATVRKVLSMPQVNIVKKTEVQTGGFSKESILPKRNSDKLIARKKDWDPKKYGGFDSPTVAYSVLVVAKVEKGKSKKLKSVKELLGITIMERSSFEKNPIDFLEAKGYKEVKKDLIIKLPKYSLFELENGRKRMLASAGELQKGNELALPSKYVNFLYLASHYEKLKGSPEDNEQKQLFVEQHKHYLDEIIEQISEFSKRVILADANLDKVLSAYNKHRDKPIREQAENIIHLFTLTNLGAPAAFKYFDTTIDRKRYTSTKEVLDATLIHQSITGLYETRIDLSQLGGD

B1: anti-CRISPR protein AcrIIA4 (natural protein)
chain: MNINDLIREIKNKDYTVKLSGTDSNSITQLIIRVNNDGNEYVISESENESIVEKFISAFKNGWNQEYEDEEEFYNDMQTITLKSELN
- stoichiometry N: 1
